The source of these data is publication PMC8913689.

In the experiment the target is HA-metabotropic glutamate receptor 3, Q14832. As to the kind of experiment: AFM single-molecule force spectroscopy (AFM-SMFS); living WTT-CHO cells transfected with 1 µg of HA-GPCR vector, basal state, 37 °C; anti-HA antibody on the AFM tip pulls the HA-receptor out of the membrane; unfolding distances fitted by a Gaussian mixture (BIC) and each population assigned to an oligomeric state by the receptor's theoretical …. The following applies: remark: other sources report otherwise.

B1: HA-metabotropic glutamate receptor 3, Q14832 23-879 (receptor)
chain: LGDHNFLRREIKIEGDLVLGGLFPINEKGTGTEECGRINEDRGIQRLEAMLFAIDEINKDDYLLPGVKLGVHILDTCSRDTYALEQSLEFVRASLTKVDEAEYMCPDGSYAIQENIPLLIAGVIGGSYSSVSIQVANLLRLFQIPQISYASTSAKLSDKSRYDYFARTVPPDFYQAKAMAEILRFFNWTYVSTVASEGDYGETGIEAFEQEARLRNICIATAEKVGRSNIRKSYDSVIRELLQKPNARVVVLFMRSDDSRELIAAASRANASFTWVASDGWGAQESIIKGSEHVAYGAITLELASQPVRQFDRYFQSLNPYNNHRNPWFRDFWEQKFQCSLQNKRNHRRVCDKHLAIDSSNYEQESKIMFVVNAVYAMAHALHKMQRTLCPNTTKLCDAMKILDGKKLYKDYLLKINFTAPFNPNKDADSIVKFDTFGDGMGRYNVFNFQNVGGKYSYLKVGHWAETLSLDVNSIHWSRNSVPTSQCSDPCAPNEMKNMQPGDVCCWICIPCEPYEYLADEFTCMDCGSGQWPTADLTGCYDLPEDYIRWEDAWAIGPVTIACLGFMCTCMVVTVFIKHNNTPLVKASGRELCYILLFGVGLSYCMTFFFIAKPSPVICALRRLGLGSSFAICYSALLTKTNCIARIFDGVKNGAQRPKFISPSSQVFICLGLILVQIVMVSVWLILEAPGTRRYTLAEKRETVILKCNVKDSSMLISLTYDVILVILCTVYAFKTRKCPENFNEAKFIGFTMYTTCIIWLAFLPIFYVTSSDYRVQTTTMCISVSLSGFVVLGCLFAPKVHIILFQPQKNVVTHRLHLNRFSVSGTGTTYSQSSASTYVPTVCNGREVLDSTTSSL
The term stoichiometry N denotes the number of molecules, sites or subunits per partner or assembly. For the molecule B1, the stoichiometry N is 2.
